Assay results reported in PMC11879086, “Identification and characterization of a human MORC2 DNA binding region that is required for gene silencing” (Nucleic Acids Research, 2024).

Columns and labels:
[1] = biological target: T1, MORC2 dephosphorylated (wild-type) (Homo sapiens) (UniProt Q9Y6X9); assay: fluorescence anisotropy; conditions: apo; FA/EMSA: 50 mM NaCl, 3 mM MgCl2, 20 mM Na-HEPES pH 7.4, 1 mM TCEP, 10% glycerol, 0.025 mM ZnCl2, 50 ug/ml BSA, room temperature; 1 nM nucleic acid (FA) or 20 nM
T1 sequence: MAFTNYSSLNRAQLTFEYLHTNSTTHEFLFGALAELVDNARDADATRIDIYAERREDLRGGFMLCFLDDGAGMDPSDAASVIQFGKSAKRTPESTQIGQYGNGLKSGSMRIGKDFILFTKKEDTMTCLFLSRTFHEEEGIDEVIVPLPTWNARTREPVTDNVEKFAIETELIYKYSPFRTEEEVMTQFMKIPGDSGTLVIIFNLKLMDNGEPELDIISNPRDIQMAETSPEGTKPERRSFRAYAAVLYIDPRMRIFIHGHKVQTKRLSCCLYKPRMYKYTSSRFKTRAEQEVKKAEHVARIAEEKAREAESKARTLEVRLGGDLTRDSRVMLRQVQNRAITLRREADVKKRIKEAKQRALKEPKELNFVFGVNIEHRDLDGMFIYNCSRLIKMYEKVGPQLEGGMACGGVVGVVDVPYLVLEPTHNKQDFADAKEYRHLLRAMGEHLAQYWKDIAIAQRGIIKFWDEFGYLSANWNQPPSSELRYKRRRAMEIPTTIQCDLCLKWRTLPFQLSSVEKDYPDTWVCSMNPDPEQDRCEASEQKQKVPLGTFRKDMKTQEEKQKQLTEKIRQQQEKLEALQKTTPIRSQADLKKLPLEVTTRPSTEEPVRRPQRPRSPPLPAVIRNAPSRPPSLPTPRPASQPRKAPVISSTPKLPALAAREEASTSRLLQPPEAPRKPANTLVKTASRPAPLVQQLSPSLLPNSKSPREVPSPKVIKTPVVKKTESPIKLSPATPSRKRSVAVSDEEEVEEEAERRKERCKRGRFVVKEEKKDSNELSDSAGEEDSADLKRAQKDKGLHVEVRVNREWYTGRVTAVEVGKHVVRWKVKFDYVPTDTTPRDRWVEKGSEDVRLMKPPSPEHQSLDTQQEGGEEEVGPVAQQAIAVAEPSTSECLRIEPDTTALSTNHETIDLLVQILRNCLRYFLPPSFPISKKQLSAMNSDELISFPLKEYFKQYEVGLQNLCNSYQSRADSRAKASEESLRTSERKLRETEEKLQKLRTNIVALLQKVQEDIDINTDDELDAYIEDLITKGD

[2] = tested on: MBP-MORC2 wild-type (Homo sapiens); assay: pull-down; conditions: FA/EMSA: 50 mM NaCl, 3 mM MgCl2, 20 mM Na-HEPES pH 7.4, 1 mM TCEP, 10% glycerol, 0.025 mM ZnCl2, 50 ug/ml BSA, room temperature; 1 nM nucleic acid (FA) or 20 nM
[3] = biological target: T2, MORC2 dephosphorylated (wild-type) (Homo sapiens, UniProt Q9Y6X9 1-1032); assay: fluorescence anisotropy; apo; FA/EMSA: 50 mM NaCl, 3 mM MgCl2, 20 mM Na-HEPES pH 7.4, 1 mM TCEP, 10% glycerol, 0.025 mM ZnCl2, 50 ug/ml BSA, room temperature; 1 nM nucleic acid (FA) or 20 nM DNA (EMSA); conditions: protein: recombinant, tags: tag removed by TEV, chain copies: 2, label: 5'-6-FAM
T2 sequence: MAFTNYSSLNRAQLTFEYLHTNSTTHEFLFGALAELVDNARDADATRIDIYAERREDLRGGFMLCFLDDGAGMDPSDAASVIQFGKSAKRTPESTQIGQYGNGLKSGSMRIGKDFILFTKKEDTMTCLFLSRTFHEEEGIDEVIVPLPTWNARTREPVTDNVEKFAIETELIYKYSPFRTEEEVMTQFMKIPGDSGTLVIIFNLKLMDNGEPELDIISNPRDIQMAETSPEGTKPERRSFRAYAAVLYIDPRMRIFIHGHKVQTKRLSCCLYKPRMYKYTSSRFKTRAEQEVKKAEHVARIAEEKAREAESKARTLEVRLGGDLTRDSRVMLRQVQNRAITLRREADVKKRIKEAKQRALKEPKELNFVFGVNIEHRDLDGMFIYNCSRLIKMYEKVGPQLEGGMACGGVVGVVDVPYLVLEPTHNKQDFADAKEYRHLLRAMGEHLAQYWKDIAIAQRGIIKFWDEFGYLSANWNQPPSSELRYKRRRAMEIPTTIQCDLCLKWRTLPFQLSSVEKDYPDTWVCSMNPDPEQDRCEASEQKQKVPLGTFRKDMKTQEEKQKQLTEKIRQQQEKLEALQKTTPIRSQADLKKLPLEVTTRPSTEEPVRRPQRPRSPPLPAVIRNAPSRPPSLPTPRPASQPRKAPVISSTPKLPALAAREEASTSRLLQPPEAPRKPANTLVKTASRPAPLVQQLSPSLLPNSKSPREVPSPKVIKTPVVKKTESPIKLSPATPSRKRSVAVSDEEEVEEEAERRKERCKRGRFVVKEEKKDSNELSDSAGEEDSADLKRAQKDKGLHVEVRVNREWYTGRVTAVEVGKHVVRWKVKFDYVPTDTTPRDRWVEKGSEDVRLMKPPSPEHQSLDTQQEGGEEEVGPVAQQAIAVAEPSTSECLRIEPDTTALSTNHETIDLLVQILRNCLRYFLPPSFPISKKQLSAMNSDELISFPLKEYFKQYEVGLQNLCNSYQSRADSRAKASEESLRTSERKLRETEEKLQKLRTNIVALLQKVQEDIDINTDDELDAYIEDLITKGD

[4] = biological target: T2, MORC2 dephosphorylated (wild-type); assay: fluorescence anisotropy; apo ('5 or less'); FA/EMSA: 50 mM NaCl, 3 mM MgCl2, 20 mM Na-HEPES pH 7.4, 1 mM TCEP, 10% glycerol, 0.025 mM ZnCl2, 50 ug/ml BSA, room temperature; 1 nM nucleic acid (FA) or 20 nM DNA (EMSA); conditions: protein: recombinant; tags: tag removed by TEV; chain copies: 2; label: 5'-6-FAM; blunt
[5] = biological target: the molecule itself; assay: SEC-MALS; coiled coil 3, 1.5 mg/ml, 150 mM NaCl, 3 mM MgCl2, 20 mM Na-HEPES pH 7.4, 0.5 mM TCEP, 1.5% glycerol, 0.025 mM ZnCl2; Wyatt 010 column
[6] = biological target: T2, MORC2 dephosphorylated (wild-type); assay: fluorescence anisotropy; apo; Hill slope 0.6; FA/EMSA: 50 mM NaCl, 3 mM MgCl2, 20 mM Na-HEPES pH 7.4, 1 mM TCEP, 10% glycerol, 0.025 mM ZnCl2, 50 ug/ml BSA, room temperature; 1 nM nucleic acid (FA) or 20 nM DNA (EMSA); conditions: protein: recombinant; tags: tag removed by TEV; chain copies: 2; label: 5'-6-FAM on oligo 3; four-way junction of 4 strands
[7] = biological target: the molecule itself; assay: SEC-MALS; full-length MORC2, 2 mg/ml, 150 mM NaCl, 3 mM MgCl2, 20 mM Na-HEPES pH 7.4, 0.5 mM TCEP, 1.5% glycerol, 0.025 mM ZnCl2, without AMP-PNP; Wyatt 030 column

ATATCGATGTATATATCTGACACGTGCCTGGAGACTAGGGAGTAATCCCCTTGGCGGTTAAAACGCGGGGGACAGCGCGTACGTGCGTTTAAGCGGTGCTAGAGCTGTCTACGACCAATTGAGCGGCCTCGGCACCGGGATTCTGATAT (double strand) [Nucleosome on 2-601-2 DNA]
Kd [1]: 16 nM

pUC19 linear
binding signal (fold less than circular) [2]: 30

B1: Random 35mer ssRNA (ssRNA)
RNA: AUAGGGUCCAUCAGAAUUCGGAUGAACUCGGUGUG
Kd [3]: 49 ± 6 nM

B2: High AT 35mer dsDNA (dsDNA)
DNA 1: CATCATCAAAGACCAAAAGTAGATAAAACCACAAA
DNA 2: TTTGTGGTTTTATCTACTTTTGGTCTTTGATGATG
Kd [4]: < 5 nM

B3: Random 25mer dsDNA (dsDNA)
DNA 1: TCCATCAGAATTCGGATGAACTCGG
DNA 2: CCGAGTTCATCCGAATTCTGATGGA
Kd ([3]; blunt): 21 ± 2 nM

B4: MORC2 coiled coil 3 (residues 900-1032) (domain or fragment, human, UniProt Q9Y6X9 900-1032, looked up)
chain: ALSTNHETIDLLVQILRNCLRYFLPPSFPISKKQLSAMNSDELISFPLKEYFKQYEVGLQNLCNSYQSRADSRAKASEESLRTSERKLRETEEKLQKLRTNIVALLQKVQEDIDINTDDELDAYIEDLITKGD
notes: also called CC3; isolated MORC2 C-terminus; source: E. coli BL21 (DE3) RIL, purified (HisTrap, TEV cleavage, S75 SEC); not shown: His6, N-terminal, cleaved
stoichiometry N [5]: 2

B5: Random 35mer ssDNA (ssDNA)
DNA: ATAGGGTCCATCAGAATTCGGATGAACTCGGTGTG
Kd [3]: 51 ± 9 nM

B6: Random 45mer dsDNA (dsDNA)
DNA 1: GCCGCGTATAGGGTCCATCAGAATTCGGATGAACTCGGTGTGAAG
DNA 2: CTTCACACCGAGTTCATCCGAATTCTGATGGACCCTATACGCGGC
Kd ([3]; blunt): 11 ± 3 nM

B7: 149 bp Widom 601 dsDNA (2-601-2) (dsDNA)
DNA 1: ATATCGATGTATATATCTGACACGTGCCTGGAGACTAGGGAGTAATCCCCTTGGCGGTTAAAACGCGGGGGACAGCGCGTACGTGCGTTTAAGCGGTGCTAGAGCTGTCTACGACCAATTGAGCGGCCTCGGCACCGGGATTCTGATAT
DNA 2: ATATCAGAATCCCGGTGCCGAGGCCGCTCAATTGGTCGTAGACAGCTCTAGCACCGCTTAAACGCACGTACGCGCTGTCCCCCGCGTTTTAACCGCCAAGGGGATTACTCCCTAGTCTCCAGGCACGTGTCAGATATATACATCGATAT
Kd [4]: < 5 nM

B8: Random 65mer dsDNA (dsDNA)
DNA 1: ATTCTCCAGGGCGGCCGCGTATAGGGTCCATCAGAATTCGGATGAACTCGGTGTGAAGAAAGATC
DNA 2: GATCTTTCTTCACACCGAGTTCATCCGAATTCTGATGGACCCTATACGCGGCCGCCCTGGAGAAT
Kd [4]: < 5 nM

B9: Cruciform DNA (structured_DNA)
DNA 1: CCCTATAACCCCTGCATTGAATTCCAGTCTGATAA
DNA 2: GTAGTCGTGATAGGTGCAGGGGTTATAGGG
DNA 3: AACAGTAGCTCTTATTCGAGCTCGCGCCCTATCACGACTA
DNA 4: TTTATCAGACTGGAATTCAAGCGCGAGCTCGAATAAGAGCTACTGT
Kd [6]: 78 ± 12 nM

B10: full-length human MORC2 (dephosphorylated, wild-type) (natural protein, UniProt Q9Y6X9 1-1032, looked up)
chain: MAFTNYSSLNRAQLTFEYLHTNSTTHEFLFGALAELVDNARDADATRIDIYAERREDLRGGFMLCFLDDGAGMDPSDAASVIQFGKSAKRTPESTQIGQYGNGLKSGSMRIGKDFILFTKKEDTMTCLFLSRTFHEEEGIDEVIVPLPTWNARTREPVTDNVEKFAIETELIYKYSPFRTEEEVMTQFMKIPGDSGTLVIIFNLKLMDNGEPELDIISNPRDIQMAETSPEGTKPERRSFRAYAAVLYIDPRMRIFIHGHKVQTKRLSCCLYKPRMYKYTSSRFKTRAEQEVKKAEHVARIAEEKAREAESKARTLEVRLGGDLTRDSRVMLRQVQNRAITLRREADVKKRIKEAKQRALKEPKELNFVFGVNIEHRDLDGMFIYNCSRLIKMYEKVGPQLEGGMACGGVVGVVDVPYLVLEPTHNKQDFADAKEYRHLLRAMGEHLAQYWKDIAIAQRGIIKFWDEFGYLSANWNQPPSSELRYKRRRAMEIPTTIQCDLCLKWRTLPFQLSSVEKDYPDTWVCSMNPDPEQDRCEASEQKQKVPLGTFRKDMKTQEEKQKQLTEKIRQQQEKLEALQKTTPIRSQADLKKLPLEVTTRPSTEEPVRRPQRPRSPPLPAVIRNAPSRPPSLPTPRPASQPRKAPVISSTPKLPALAAREEASTSRLLQPPEAPRKPANTLVKTASRPAPLVQQLSPSLLPNSKSPREVPSPKVIKTPVVKKTESPIKLSPATPSRKRSVAVSDEEEVEEEAERRKERCKRGRFVVKEEKKDSNELSDSAGEEDSADLKRAQKDKGLHVEVRVNREWYTGRVTAVEVGKHVVRWKVKFDYVPTDTTPRDRWVEKGSEDVRLMKPPSPEHQSLDTQQEGGEEEVGPVAQQAIAVAEPSTSECLRIEPDTTALSTNHETIDLLVQILRNCLRYFLPPSFPISKKQLSAMNSDELISFPLKEYFKQYEVGLQNLCNSYQSRADSRAKASEESLRTSERKLRETEEKLQKLRTNIVALLQKVQEDIDINTDDELDAYIEDLITKGD
notes: Cloned into vector 438-B (N-terminal His6-TEV) and into 438-C (N-terminal His6-MBP-TEV); Heterogeneous phosphorylation from insect cells was removed by phosphatase treatment; also called wild-type MORC2; full-length MORC2; not shown: His6, N-terminal, cleaved
stoichiometry N [7]: 2
